# Assay: Stability of purified ArsR protein to freeze thaw
# Format: physicochemical
# Settings: post-dialysis, 0.48 mg/ml in 50 mM Hepes pH 8.5, 200 mM NaCl, 15 mM DTT, 5% glycerol
# Protocol: Dialysis was performed next. Glycerol was added to bring the pool to a concentration of 5% glycerol by volume. The pool was then diluted to approximately 1 mg/ml with the dialysis buffer listed below. The faction pool was dialyzed in 3500 Molecular Weight Cutoff tubing placed in 1 liter consisting of 50 mM Hepes, pH 8.5, 200 mM NaCl, 1 mM EDTA, 15 mM DTT, and 5% glycerol for five hours. The dialysis tubing was then placed in 4 liters of 50 mM Hepes, pH 8.5, 200 mM NaCl, 15 mM DTT, and 5% glycerol overnight to remove any EDTA. The pool was then clarified by centrifugation, the protein concentration was determined, and a SDS-PAGE was run of the results.
# The final product of a pilot production (5 g whole cell pellet from 34 g total) yielded a protein concentration of 480 μg/ml (in a 0.05% polysorbate solution for stabilization of the protein and reduction of non-specific binding to the sensor surface). The total volume for this experiment was 3.6 ml, which yielded a total protein yield of 1.75 mg. This was dissolved in a buffer of 50 mM Hepes, pH 8.5, 200 mM NaCl, 15 mM DTT, and 5% Glycerol. Purity was greater than 95% by SDS PAGE. In this system, induction was tightly regulated and successful, with 30-40% of protein production in soluble fraction. The initial yield from IMAC for dialysis was 5 mg at 1.0 mg/ml., with visible precipitation post dialysis.
molecule,measurement,value
"ArsR: E. coli arsenic-binding, DNA-binding ars operon repressor protein, SEQ ID NO:2, expressed from codon-optimized synthetic gene (protein) MLQLTPLQLFKNLSDETRLGIVLLLREMGELCVCDLCMALDQSQPKISRHLAMLRESGILLDRKQGKWVHYRLSPHIPSWAAQIIEQAWLSQQDDVQVIARKLASVNCSGSSKAVCI",stability to freeze thaw cycles,stable to multiple freeze thaw cycles
